Here are results for 10 substances from patent publication US20210038737A1.

Experiment [1] deals with CAL PDZ domain (CALP5-His) (UniProt Q9HD26). In words: FP competition, condition B: probe FAM-…-OH (100 nM) with 500 nM CALP5-His; competitor titrated.
Experiment [2] shares this target. In words: FP competition, condition A: probe peptide 26 (50 nM) with 100 nM CALP5-His; competitor titrated.
Experiment [3] shares this target. The experiment can be described thus: direct FP, condition C: 50 nM labeled peptide, CALP5-His titrated.
Experiment [4] shares this target. The experiment can be described thus: FP competition.
Experiment [5] shares this target. In words: direct FP: 50 nM FITC-labeled peptide, PDZ domain titrated.
In a further experiment the target is NHERF2-PDZ1 domain (UniProt Q15599). The experiment is described as above.
NHERF2-PDZ1 domain, sequence (Q15599 11-90 limits assumed): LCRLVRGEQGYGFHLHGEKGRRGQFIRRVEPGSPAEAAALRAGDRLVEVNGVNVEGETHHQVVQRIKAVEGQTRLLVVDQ
The target of a further experiment is NHERF1-PDZ1 domain (UniProt O14745). Described as above.
NHERF1-PDZ1 domain, sequence (O14745 14-94 limits assumed): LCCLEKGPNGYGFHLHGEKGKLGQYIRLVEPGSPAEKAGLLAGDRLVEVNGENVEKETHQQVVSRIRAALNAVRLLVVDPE
For a further experiment, the target named is NHERF2-PDZ2 domain (UniProt Q15599). Described as above.
NHERF2-PDZ2 domain, sequence (Q15599 150-230 limits assumed): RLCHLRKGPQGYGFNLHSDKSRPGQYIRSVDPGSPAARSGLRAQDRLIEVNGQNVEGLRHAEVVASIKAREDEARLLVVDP
Experiment [6] addresses CAL PDZ domain (CALP5-His) (UniProt Q9HD26). The experiment can be described thus: direct FP of FITC-labeled peptides.
Experiment [7] shares this target. In words: direct FP, ratio of KD values.

Broadly, the IC50 is the concentration that gives 50% inhibition. Read a high IC50 as a need for much substance. On to “peptide 20: Ac-Cys-(D-Arg)-Arg-Arg-(2-Nal)-Trp-Gln-Pen-Thr-Arg-Tle-OH”, for which, in experiment [1], the IC50 worked out at 165 nM. On to “peptide 21: Ac-Cys-(D-Arg)-(D-Arg)-Arg-(2-Nal)-Trp-Gln-Pen-Thr-Arg-Tle-OH”, for which the IC50 in experiment [1] was determined as 270 nM. Turning to “peptide 22: Ac-Cys-Arg-(D-Arg)-Arg-(2-Nal)-Trp-Gln-Pen-Thr-Arg-Tle-OH”, the IC50 in [2] is 401 nM. One may read the Kd as the concentration at which binding is half-saturated. As to “peptide 23: FAM-miniPEG-Cys-(D-Arg)-Arg-Arg-(2-Nal)-Trp-Pro-Pen-Thr-Arg-Tle-OH”, the Kd in experiment [3] is 168 nM. Regarding “peptide 24: Ac-Cys-(D-Arg)-Arg-Arg-(2-Nal)-Trp-Pen-Tle-Thr-Arg-Tle-OH”, in experiment [4], the fold decrease in CAL binding (vs parent, printed as peptide 22) came out at 2 fold. This substance yielded an IC50 in experiment [1] of 380 nM.

“peptide 25: Ac-Cys-(D-Arg)-Arg-Arg-(2-Nal)-(Bta)-Pen-Tle-Thr-Arg-Tle-OH”: the fold more potent than peptide 24 in CAL binding in [4] is 1.5 fold. Also, the IC50 in experiment [1] came out at 235 nM. As to “peptide 26: FAM-miniPEG-Cys-(D-Arg)-Arg-Arg-(2-Nal)-(Bta)-Pen-Tle-Thr-Arg-Tle-OH”, the Kd in [3] turned out to be 49 nM. In turn, “peptide 27-FITC: FITC-miniPEG-Cys-(D-Arg)-Arg-Arg-Nal-Trp-Pro-Pen-Thr-Arg-Tle-OH” registered a Kd in experiment [5] of 179 nM. Take “peptide 28-FITC: FITC-miniPEG-Cys-(D-Arg)-Arg-Arg-Nal-Bta-Pro-Pen-Thr-Arg-Tle-OH”: the Kd in [5] was found to be 87 nM.

Consider “peptide 29-FITC: FITC-miniPEG-Cys-(D-Arg)-Arg-Arg-Nal-Bta-Pip-Pen-Thr-Arg-Tle-OH”, for which the Kd with NHERF2-PDZ1 domain came to 1370 nM; with NHERF1-PDZ1 domain it was 780 nM; in experiment [5], 6 nM; in the experiment with NHERF2-PDZ2 domain, 7480 nM. In addition, the fold improvement of CAL PDZ-binding affinity (Pip for Pro, vs peptide 28) in experiment [6] is 15 fold. Further, the fold selectivity for CAL PDZ over NHERF1/2 PDZ domains in experiment [7] was more than 130 fold.
